In assay [1] the target is collagen (type and supplier not stated; Examples 11 and 12). The experiment in a line: fluorescence plate binding assay, dansyl label, collagen coated on 96-well plate. As to the method:
(§1) Binding assays were done in a 96-well high-binding plate, black with a clear bottom (Costar). Collagen was compared to untreated wells and BSA coated wells. Collagen and BSA were immobilized at 37° C. for 1 hr by incubating 90 μL/well at concentrations of 2 mg/mL in 10 mM HCl and 1×PBS, respectively. Each well was washed 3× with 1×PBS after incubating. Z-SILY was dissolved in 1×PBS at concentrations from 100 μM to 10 nM in 10-fold dilutions. Wells were incubated for 30 min at 37° C. and rinsed 3× with PBS and then filled with 90 μL of 1×PBS. Fluorescence readings were taken on an M5 Spectramax Spectrophotometer (Molecular Devices) at excitation/emission wavelengths of 335 nm/490 nm respectively.

Assay [2] shares this target. The experiment in a line: fluorescence plate assay, collagen-coated wells, binding curve from the data of FIG. 4. As to the method: as §1

Where no end group is shown, it is not given here. The star is where a group is joined. Dansyl = CN(C)c1cccc2c(S(=O)(=O)*)cccc12

From US20130190246A1 (PURDUE RESEARCH FOUNDATION, published 2013) come the findings set out here.

B1: Dansyl-GRRANAALKAGELYKSILYGC (Z-SILY) (peptide)
peptide: Dansyl-GRRANAALKAGELYKSILYGC
notes: Fluorescently labelled version of SILY; also called dansyl-modified peptide SILY
In the case of B1, binding in assay [1] was characterised by a dissociation constant (Kd) of 860 nM. Also, the EC50 (read off the curve) (as a rule, the concentration at which the effect is half-maximal) in assay [2] was around 900 nM.
